Among the data in article PMC4643876 (2015) are IC50 and Ki values, retold here.

Where two headings read alike, the source gives them in different places. Ends that are not written are not given here. * marks the point of attachment. Biotin = O=C1N[C@H]2[C@H](CS[C@H]2CCCCC(=O)*)N1; Octanoyl = CCCCCCCC(=O)*; GABA = NCCCC(=O)O

Assay [1] has as its target T1, GFP-tagged Plasmepsin V (PmV-GFP), P. falciparum clone DC6 (Plasmodium falciparum). As to the kind of experiment: 3 uM HRPII-PExEl substrate.
The target of assay [2] is T1, GFP-tagged Plasmepsin V (PmV-GFP), P. ….
Assay [3] shares this target. As to the kind of experiment: 3 uM HRPII-PExEl substrate. This is another data set of the same source.
Assay [4] shares this target. The source holds these as a separate data set.
The target is the same in assay [5]. In words: 3 uM HRPII-PExEl substrate. This is another data set of the same source.

T1 sequence (Q8I6Z5 whole entry): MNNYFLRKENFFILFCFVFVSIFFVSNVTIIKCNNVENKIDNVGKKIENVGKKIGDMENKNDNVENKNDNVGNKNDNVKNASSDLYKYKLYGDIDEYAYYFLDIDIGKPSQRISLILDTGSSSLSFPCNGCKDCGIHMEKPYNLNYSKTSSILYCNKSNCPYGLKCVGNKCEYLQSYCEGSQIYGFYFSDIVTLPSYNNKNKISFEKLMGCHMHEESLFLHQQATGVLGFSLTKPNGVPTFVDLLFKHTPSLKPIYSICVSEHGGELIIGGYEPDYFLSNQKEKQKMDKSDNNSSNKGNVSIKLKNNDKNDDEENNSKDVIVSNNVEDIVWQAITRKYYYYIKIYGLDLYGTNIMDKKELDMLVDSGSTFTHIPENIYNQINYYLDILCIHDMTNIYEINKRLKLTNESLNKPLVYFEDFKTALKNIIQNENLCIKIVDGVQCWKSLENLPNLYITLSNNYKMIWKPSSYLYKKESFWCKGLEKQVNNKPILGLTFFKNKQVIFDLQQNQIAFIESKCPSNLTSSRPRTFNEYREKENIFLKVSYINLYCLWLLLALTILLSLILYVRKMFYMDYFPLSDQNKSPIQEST

B1: Compound 1 (LG20), RL[L~A]EA (peptide)
peptide: RLLAEA
modifications: also: hydroxyethylamino (HEA) isostere in place of peptide bond Leu3-Ala4
With B1, in assay [1], the midpoint of inhibition, the IC50, lay at 0.37 nM.

B2: Compound 7a (peptide)
chain: RLLYEA
modifications: not fully specified; also: HEA isostere replaces the Leu3-Tyr4 peptide bond
On to B2, for which the Ki (usually a dissociation constant, usually derived from enzyme kinetics or from competition with a known ligand) in assay [2] worked out at 0.74 nM. Besides, in assay [3], the IC50 – broadly, the concentration needed to halve the response being measured – was found to be 1.38 nM.

B3: Compound 37a (octanoyl group at the N-terminus of Compound 7a) (peptide)
peptide: Octanoyl-RLLYEA
modifications: also: hydroxyethylamino (HEA) isostere in place of peptide bond Leu3-Tyr4, carbinol S
In assay [4], B3 showed a Ki of 0.01 nM.

B4: Compound 36, a biotinylated version of Compound 1 (peptide)
peptide: {Biotin-GABA-GABA}-RLLAEA
modifications: also: hydroxyethylamino (HEA) isostere in place of peptide bond Leu3-Ala4
In assay [5], B4 registered an IC50 of 41.9 nM. In addition, the affinity in assay [4], expressed as Ki, was 22.5 nM.
